In the supplement of paper PMC10126150:
± gives the standard deviation of the averaged measurements.

System: ATP
Assay: switch fluorescence ratio, 500 uM ATP over buffer (Cy3 cluster intensity, sum of 5 cycles each) (fold (ratio)); higher = stronger signal-on switching upon ATP binding; sequences stand for … in TCGTCGGCAGCGTCAGATGTGTATAAGAGACAGTTTTTTTTTTTTTTTTTTTTTTTTT…TC
Conditions: aptamer strand: ATP DNA aptamer (quencher-CACCTGGGGGAGTATTGCGGAGGAAGG + anchor), 100 nM annealed; ATP concentration: 500 uM
Procedure, shortened: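 Cy3-labelled switching-strand clusters on a modified Illumina MiSeq flow-cell were annealed to 100 nM quencher-labelled ATP aptamer, imaged in selection buffer, then imaged after 15 min with 500 uM ATP at 22 °C. Five buffer/ATP cycles ran, with NaOH stripping and re-annealing between them. The fluorescence ratio is summed target-cycle over summed buffer-cycle Cy3 intensity per cluster, averaged per switch-domain sequence. Clusters outside 100-1000 RFU were excluded.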
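Further: ATP exposure 15 min at 22 °C before imaging.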

Row | Sequence | switch fluorescence ratio
1 | GGTTTAAATA | 1.003 ± 0.0092
2 | GGTTTAAGGG | 0.972 ± 0.023
3 | GGTTTACGCT | 0.996 ± 0.027
4 | GGTTTAGACT | 0.99 ± 0.036
5 | GGTTTAGGAC | 0.971 ± 0.016
6 | GGTTTAGGTG | 1.14 ± 0.059
7 | GGTTTATTTT | 0.9946 ± 0.0013
8 | GGTTTCAAAA | 0.99668 ± 0.00038
9 | GGTTTCAGTG | 1.01 ± 0.025
10 | GGTTTCGAAT | 0.98 ± 0.049
11 | GGTTTCGGTG | 1.008 ± 0.0098
12 | GGTTTCGTAG | 1.01 ± 0.027
13 | GGTTTCTCGG | 1.019 ± 0.0092
14 | GGTTTCTTGC | 1.02 ± 0.011
15 | GGTTTGCAGG | 0.967 ± 0.05
16 | GGTTTGCGGC | 0.994 ± 0.036
17 | GGTTTGGAGA | 1.024 ± 0.0091
18 | GGTTTGGCGA | 0.988 ± 0.044
19 | GGTTTGGGTA | 1.01 ± 0.0044
20 | GGTTTGTATG | 0.976 ± 0.021
21 | GGTTTTAAAA | 0.99 ± 0.013
22 | GGTTTTATGT | 0.984 ± 0.032
23 | GGTTTTCATT | 0.951 ± 0.053
24 | GGTTTTCCGT | 1.07 ± 0.051
25 | GGTTTTCCTG | 0.975 ± 0.014
26 | GGTTTTCTAA | 0.9838 ± 0.0051

Row | Sequence | switch fluorescence ratio
27 | GGTTTTCTTT | 1 ± 0.035
28 | GGTTTTGCGG | 0.997 ± 0.029
29 | GGTTTTGCTG | 1.05 ± 0.053
30 | GGTTTTGGAT | 0.986 ± 0.019
31 | GGTTTTGTTA | 1.03 ± 0.086
32 | GGTTTTTCCG | 1.03 ± 0.033
33 | GGTTTTTTGA | 1.01 ± 0.038
34 | GGTTTTTTGG | 0.98 ± 0.021
35 | GGTTTTTTTA | 0.983 ± 0.032
36 | GTAAAAATTG | 0.986 ± 0.028
37 | GTAACATGGG | 0.973 ± 0.021
38 | GTAACGGAAC | 1.13 ± 0.018
39 | GTAACGTAAG | 1.03 ± 0.034
40 | GTAAGAGCGT | 0.996 ± 0.041
41 | GTAAGGAAGG | 0.989 ± 0.012
42 | GTAAGGGGGG | 0.994 ± 0.028
43 | GTAAGGGGGT | 0.9731 ± 0.0091
44 | GTAAGGGGTG | 1.01 ± 0.014
45 | GTAAGGGGTT | 1.033 ± 0.0064
46 | GTAAGTCATT | 1 ± 0.029
47 | GTAATATGCG | 0.987 ± 0.018
48 | GTAATATGTG | 0.991 ± 0.013
49 | GTAATCTGTT | 0.989 ± 0.075
50 | GTAATGAGGT | 1.01 ± 0.024
51 | GTAATGGACC | 1.03 ± 0.043
52 | GTAATGGTTT | 1.07 ± 0.17

Row | Sequence | switch fluorescence ratio
53 | GTAATGTATC | 1.03 ± 0.046
54 | GTACTTGGGA | 1.04 ± 0.074
55 | GTAGAGGGGA | 1.02 ± 0.016
56 | GTAGATAGTT | 1.02 ± 0.036
57 | GTAGCAAGGG | 2.38 ± 1.9
58 | GTAGCCTGGT | 0.989 ± 0.041
59 | GTAGCTCTTA | 1.04 ± 0.019
60 | GTAGGAAATA | 1.02 ± 0.02
61 | GTAGGAGGTA | 0.9807 ± 0.0039
62 | GTAGGCAACA | 1.01 ± 0.068
63 | GTAGGGACCG | 0.909 ± 0.025
64 | GTAGGGAGCA | 1.02 ± 0.022
65 | GTAGGGATAG | 1.02 ± 0.057
66 | GTAGGGGACA | 1.06 ± 0.012
67 | GTAGGGGAGC | 0.977 ± 0.06
68 | GTAGGGGCCT | 1.057 ± 0.0073
69 | GTAGGGGGAG | 0.9884 ± 0.004
70 | GTAGGGGTAA | 0.974 ± 0.036
71 | GTAGGGGTAC | 1.47 ± 0.72
72 | GTAGGGGTTT | 0.998 ± 0.034
73 | GTAGGGTGTG | 0.973 ± 0.041
74 | GTAGGTAGCG | 0.984 ± 0.031
75 | GTAGGTAGTT | 1.09 ± 0.14
76 | GTAGTAAAGG | 0.9867 ± 0.0034
77 | GTAGTCCAGG | 1.27 ± 0.082
78 | GTAGTCGTAC | 1.11 ± 0.064

Row | Sequence | switch fluorescence ratio
79 | GTAGTGCAAT | 1.1 ± 0.018
80 | GTAGTTAATG | 0.984 ± 0.038
81 | GTAGTTGGAG | 0.992 ± 0.034
82 | GTATAAATGG | 0.978 ± 0.023
83 | GTATAAGTTG | 1.02 ± 0.047
84 | GTATATATAG | 1.02 ± 0.03
85 | GTATCAGGCC | 0.992 ± 0.01
86 | GTATCGAGAG | 1.01 ± 0.013
87 | GTATCGTACG | 0.984 ± 0.014
88 | GTATCTGGGG | 0.998 ± 0.059
89 | GTATGAATGG | 0.984 ± 0.049
90 | GTATGCCGGG | 0.939 ± 0.057
91 | GTATGCTTTT | 1.034 ± 0.0043
92 | GTATGGAGGG | 1.02 ± 0.029
93 | GTATGGCTGG | 0.976 ± 0.044
94 | GTATGTAGCG | 0.987 ± 0.027
95 | GTATGTATTT | 0.986 ± 0.021
96 | GTATGTTAGG | 1.0143 ± 0.00055
97 | GTATTAGGGC | 1.02 ± 0.0034
98 | GTATTATAGG | 1.006 ± 0.0042
99 | GTATTCTCCA | 1.018 ± 0.0043
100 | GTATTTAGGG | 1.03 ± 0.039
101 | GTATTTGGGC | 0.994 ± 0.012
102 | GTATTTGTTC | 1.01 ± 0.034
103 | GTATTTTTGA | 1.003 ± 0.0091
104 | GTATTTTTGC | 1.02 ± 0.024

Row | Sequence | switch fluorescence ratio
105 | GTCAAACGGA | 0.986 ± 0.018
106 | GTCAAAGGGT | 0.99 ± 0.022
107 | GTCAATTAGG | 0.997 ± 0.024
108 | GTCACCAGGG | 1.58 ± 0.082
109 | GTCACGGGGG | 1.026 ± 0.0027
110 | GTCAGAGGGG | 0.979 ± 0.028
111 | GTCAGATAGG | 1.004 ± 0.008
112 | GTCAGGGGTG | 1.04 ± 0.052
113 | GTCATGCGTG | 0.974 ± 0.044
114 | GTCATTGGGT | 0.99 ± 0.021
115 | GTCATTTTGG | 1.03 ± 0.036
116 | GTCCGGGGGG | 1.26 ± 0.015
117 | GTCCTCGCAT | 4.8 ± 0.54
118 | GTCCTGGGGC | 0.9947 ± 0.0014
119 | GTCGAAAGGG | 1.01 ± 0.05
120 | GTCGAAAGGT | 0.984 ± 0.019
121 | GTCGAAGGGT | 1 ± 0.048
122 | GTCGACAGCG | 1.02 ± 0.035
123 | GTCGAGGGAA | 0.995 ± 0.022
124 | GTCGAGGGTC | 0.944 ± 0.03
125 | GTCGATAGCG | 0.984 ± 0.015
126 | GTCGATGGGG | 0.969 ± 0.014
127 | GTCGATGGTG | 1 ± 0.016
128 | GTCGCGGCGA | 0.9664 ± 0.006
129 | GTCGCGGGGG | 1.04 ± 0.071
130 | GTCGGACCCG | 0.973 ± 0.019

Row | Sequence | switch fluorescence ratio
131 | GTCGGGCCCG | 1.01 ± 0.06
132 | GTCGGGCGTA | 0.991 ± 0.016
133 | GTCGGGGGGC | 0.985 ± 0.021
134 | GTCGGGGGGT | 1 ± 0.025
135 | GTCGGTAGGT | 1 ± 0.032
136 | GTCGTCCTGT | 0.9884 ± 0.0083
137 | GTCGTTGCCT | 0.99139 ± 0.00027
138 | GTCGTTGGTG | 1 ± 0.056
139 | GTCGTTTAAA | 0.9898 ± 0.0062
140 | GTCTAAAATC | 0.978 ± 0.038
141 | GTCTAAGAGT | 0.9786 ± 0.0048
142 | GTCTAAGTGC | 0.996 ± 0.011
143 | GTCTAATATG | 0.9716 ± 0.0048
144 | GTCTAATCAT | 0.967 ± 0.019
145 | GTCTCATCAC | 1.01 ± 0.056
146 | GTCTCTTAGG | 1.01 ± 0.014
147 | GTCTCTTCAT | 0.986 ± 0.026
148 | GTCTGATTTA | 1.01 ± 0.011
149 | GTCTTAGGTC | 1 ± 0.035
150 | GTCTTGGGTG | 1.02 ± 0.019
151 | GTCTTGGTTC | 0.9721 ± 0.0084
152 | GTCTTTAGGG | 0.9755 ± 0.0055
153 | GTCTTTTGTG | 1.31 ± 0.43
